Results on seven molecules are retold here after patent US20220204643A1 (published 2022).

Test [1] deals with T1, anterior gradient 3, protein disulphide isomerase family member (human, UniProt Q8TD06 22-166).
T1 construct: HuProt array protein, full-length recombinant from yeast; also called AGR3
T1 sequence: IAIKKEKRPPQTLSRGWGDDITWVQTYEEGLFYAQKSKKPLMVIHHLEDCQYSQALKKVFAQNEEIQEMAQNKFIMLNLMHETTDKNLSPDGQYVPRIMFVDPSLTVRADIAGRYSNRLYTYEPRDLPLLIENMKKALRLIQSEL

Test [2] addresses T2, microtubule associated scaffold protein 2, transcript variant 2 (human, UniProt Q5JR59 1040-1369).
T2 construct: HuProt array protein, full-length recombinant from yeast; also called MTUS2
T2 sequence: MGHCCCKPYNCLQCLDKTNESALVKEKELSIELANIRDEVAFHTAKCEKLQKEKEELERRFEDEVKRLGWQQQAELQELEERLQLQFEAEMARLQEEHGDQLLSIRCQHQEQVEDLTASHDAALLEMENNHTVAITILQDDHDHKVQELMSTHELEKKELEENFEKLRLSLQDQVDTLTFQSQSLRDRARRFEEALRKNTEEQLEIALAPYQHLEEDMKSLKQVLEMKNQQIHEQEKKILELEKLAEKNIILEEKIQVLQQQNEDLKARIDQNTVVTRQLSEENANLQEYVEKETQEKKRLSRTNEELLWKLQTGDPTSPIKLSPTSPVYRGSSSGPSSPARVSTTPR

Test [3] deals with T3, hook microtubule tethering protein 2, transcript variant 2 (human, UniProt Q96ED9 1-719).
T3 construct: HuProt array protein, full-length recombinant from yeast; also called HOOK2
T3 sequence: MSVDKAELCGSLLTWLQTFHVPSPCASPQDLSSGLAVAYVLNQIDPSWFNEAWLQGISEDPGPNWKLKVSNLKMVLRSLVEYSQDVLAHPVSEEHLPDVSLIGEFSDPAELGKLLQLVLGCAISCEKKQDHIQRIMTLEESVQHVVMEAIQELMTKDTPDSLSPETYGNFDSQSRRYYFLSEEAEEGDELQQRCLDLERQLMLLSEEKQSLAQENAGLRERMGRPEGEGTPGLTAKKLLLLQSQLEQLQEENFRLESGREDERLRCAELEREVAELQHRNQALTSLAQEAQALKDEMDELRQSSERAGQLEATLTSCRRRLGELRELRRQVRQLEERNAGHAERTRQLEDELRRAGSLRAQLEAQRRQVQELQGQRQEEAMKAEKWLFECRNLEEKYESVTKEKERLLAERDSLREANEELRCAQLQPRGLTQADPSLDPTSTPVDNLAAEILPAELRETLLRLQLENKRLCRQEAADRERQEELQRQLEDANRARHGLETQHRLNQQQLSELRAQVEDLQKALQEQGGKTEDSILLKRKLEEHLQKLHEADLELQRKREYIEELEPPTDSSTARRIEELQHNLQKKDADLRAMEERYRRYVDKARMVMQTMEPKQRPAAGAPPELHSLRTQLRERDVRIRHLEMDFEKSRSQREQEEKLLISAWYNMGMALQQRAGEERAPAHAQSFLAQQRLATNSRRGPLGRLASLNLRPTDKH

Test [4] deals with T4, hydroxymethylbilane synthase, transcript variant X3 (human, UniProt P08397 18-361).
T4 construct: HuProt array protein, full-length recombinant from yeast; also called HMBS
T4 sequence: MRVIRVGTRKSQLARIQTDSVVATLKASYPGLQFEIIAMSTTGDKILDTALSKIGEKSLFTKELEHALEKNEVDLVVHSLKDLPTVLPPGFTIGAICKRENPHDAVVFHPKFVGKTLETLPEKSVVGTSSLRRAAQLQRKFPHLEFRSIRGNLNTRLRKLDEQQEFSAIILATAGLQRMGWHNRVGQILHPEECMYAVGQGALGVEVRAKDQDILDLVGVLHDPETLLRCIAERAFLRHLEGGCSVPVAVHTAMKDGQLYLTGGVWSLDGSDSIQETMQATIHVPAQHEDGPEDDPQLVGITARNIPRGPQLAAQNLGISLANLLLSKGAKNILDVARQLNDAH

The next test has as its target T5, zinc finger protein 296 (human, UniProt Q8WUU4 1-475).
T5 construct: HuProt array protein, full-length recombinant from yeast; also called ZNF296
T5 sequence: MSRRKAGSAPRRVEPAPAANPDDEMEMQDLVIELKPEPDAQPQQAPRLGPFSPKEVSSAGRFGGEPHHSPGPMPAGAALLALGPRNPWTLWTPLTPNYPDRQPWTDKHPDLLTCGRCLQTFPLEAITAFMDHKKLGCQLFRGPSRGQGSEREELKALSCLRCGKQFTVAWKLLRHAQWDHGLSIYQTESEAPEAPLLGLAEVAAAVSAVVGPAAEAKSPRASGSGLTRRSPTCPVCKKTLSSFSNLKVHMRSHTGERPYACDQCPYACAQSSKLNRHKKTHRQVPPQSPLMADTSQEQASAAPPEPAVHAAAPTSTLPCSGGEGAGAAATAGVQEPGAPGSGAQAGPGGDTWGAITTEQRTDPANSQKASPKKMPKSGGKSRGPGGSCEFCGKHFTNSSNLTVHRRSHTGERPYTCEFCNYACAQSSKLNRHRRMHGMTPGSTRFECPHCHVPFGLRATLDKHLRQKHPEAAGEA

For test [5], the target named is phosphodiesterase 5A, transcript variant 1 (human, UniProt O76074 1-875).
In test [6] the target is T6, RAN binding protein 10, transcript variant 1 (human, UniProt Q6VN20 2-620).
T6 construct: HuProt array protein, full-length recombinant from yeast; also called RANBP10
T6 sequence (Q6VN20 2-620 limits assumed, change not shown): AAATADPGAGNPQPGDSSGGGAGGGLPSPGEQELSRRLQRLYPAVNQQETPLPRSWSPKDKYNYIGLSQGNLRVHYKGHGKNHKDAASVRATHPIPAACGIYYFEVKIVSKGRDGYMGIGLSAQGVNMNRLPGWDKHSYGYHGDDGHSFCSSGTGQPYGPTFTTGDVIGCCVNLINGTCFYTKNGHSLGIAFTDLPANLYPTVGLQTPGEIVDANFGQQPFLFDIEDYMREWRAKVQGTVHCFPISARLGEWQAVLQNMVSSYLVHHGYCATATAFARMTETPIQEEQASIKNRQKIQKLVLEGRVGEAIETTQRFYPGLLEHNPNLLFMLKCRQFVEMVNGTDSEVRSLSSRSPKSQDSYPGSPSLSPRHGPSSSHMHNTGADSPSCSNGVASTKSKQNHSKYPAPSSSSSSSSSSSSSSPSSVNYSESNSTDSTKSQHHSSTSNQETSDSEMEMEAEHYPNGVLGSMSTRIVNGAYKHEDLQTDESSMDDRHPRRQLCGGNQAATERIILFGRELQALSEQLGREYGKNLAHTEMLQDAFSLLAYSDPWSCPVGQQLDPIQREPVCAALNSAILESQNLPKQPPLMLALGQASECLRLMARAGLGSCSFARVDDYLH

In test [7] the target is T7, ubiquilin 1, transcript variant 2 (human, UniProt Q9UMX0 2-589).
T7 construct: HuProt array protein, full-length recombinant from yeast; also called UBQLN1
T7 sequence (Q9UMX0 other isoform, or with tags, fused parts or gaps mutant limits assumed): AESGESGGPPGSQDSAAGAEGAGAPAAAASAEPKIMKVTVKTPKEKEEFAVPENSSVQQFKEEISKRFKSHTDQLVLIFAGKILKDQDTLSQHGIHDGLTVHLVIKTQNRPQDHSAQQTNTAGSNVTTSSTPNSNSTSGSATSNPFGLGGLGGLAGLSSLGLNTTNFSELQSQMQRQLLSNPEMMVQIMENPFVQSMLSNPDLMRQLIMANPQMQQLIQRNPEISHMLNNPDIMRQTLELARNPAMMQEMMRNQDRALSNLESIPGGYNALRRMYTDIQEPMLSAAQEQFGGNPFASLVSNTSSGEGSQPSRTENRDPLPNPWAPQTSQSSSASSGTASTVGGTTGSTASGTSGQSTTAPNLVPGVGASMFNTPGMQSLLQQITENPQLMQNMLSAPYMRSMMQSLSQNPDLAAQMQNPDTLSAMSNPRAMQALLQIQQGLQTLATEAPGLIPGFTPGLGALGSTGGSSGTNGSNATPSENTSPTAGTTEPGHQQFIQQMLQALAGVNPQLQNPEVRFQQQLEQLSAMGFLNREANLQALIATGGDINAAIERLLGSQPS

Another test concerns the target T8, ubiquilin 2 (human, UniProt Q9UHD9 2-624).
T8 construct: HuProt array protein, full-length recombinant from yeast; also called UBQLN2

A further test addresses T9, Ubiquilin 3 (human, UniProt Q9H347 1-655).
T9 construct: HuProt array protein, full-length recombinant from yeast; also called UBQLN3
T9 sequence: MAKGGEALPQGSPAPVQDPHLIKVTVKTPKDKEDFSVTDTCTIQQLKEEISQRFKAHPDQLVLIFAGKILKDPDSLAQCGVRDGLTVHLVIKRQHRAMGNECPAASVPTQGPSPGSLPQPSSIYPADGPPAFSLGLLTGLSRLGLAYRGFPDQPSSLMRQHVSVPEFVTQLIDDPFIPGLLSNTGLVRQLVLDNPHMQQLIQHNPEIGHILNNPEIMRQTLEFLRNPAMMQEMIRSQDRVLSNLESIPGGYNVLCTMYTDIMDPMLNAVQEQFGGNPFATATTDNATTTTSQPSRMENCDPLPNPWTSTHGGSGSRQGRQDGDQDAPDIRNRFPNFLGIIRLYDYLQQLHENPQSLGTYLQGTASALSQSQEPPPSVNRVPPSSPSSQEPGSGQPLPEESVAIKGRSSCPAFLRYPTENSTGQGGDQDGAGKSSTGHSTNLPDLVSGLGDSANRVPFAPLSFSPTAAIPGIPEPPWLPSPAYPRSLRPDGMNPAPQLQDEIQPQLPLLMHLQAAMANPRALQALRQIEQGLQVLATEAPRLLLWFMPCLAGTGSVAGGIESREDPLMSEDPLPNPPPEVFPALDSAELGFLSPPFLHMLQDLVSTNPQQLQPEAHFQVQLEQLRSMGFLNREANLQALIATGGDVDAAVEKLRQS

For a further test, the target named is T10, Bcl2 like 1 (human, UniProt Q07817 1-233).
T10 construct: HuProt array protein, full-length recombinant from yeast; also called BCL2L1
T10 sequence (Q07817 whole entry): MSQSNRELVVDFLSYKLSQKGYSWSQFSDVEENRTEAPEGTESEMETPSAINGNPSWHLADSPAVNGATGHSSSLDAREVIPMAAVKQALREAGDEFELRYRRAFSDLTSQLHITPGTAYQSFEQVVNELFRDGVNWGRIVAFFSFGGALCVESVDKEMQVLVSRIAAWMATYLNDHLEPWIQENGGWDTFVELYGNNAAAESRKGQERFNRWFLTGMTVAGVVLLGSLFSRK

T8 sequence (Q9UHD9 2-624 limits assumed): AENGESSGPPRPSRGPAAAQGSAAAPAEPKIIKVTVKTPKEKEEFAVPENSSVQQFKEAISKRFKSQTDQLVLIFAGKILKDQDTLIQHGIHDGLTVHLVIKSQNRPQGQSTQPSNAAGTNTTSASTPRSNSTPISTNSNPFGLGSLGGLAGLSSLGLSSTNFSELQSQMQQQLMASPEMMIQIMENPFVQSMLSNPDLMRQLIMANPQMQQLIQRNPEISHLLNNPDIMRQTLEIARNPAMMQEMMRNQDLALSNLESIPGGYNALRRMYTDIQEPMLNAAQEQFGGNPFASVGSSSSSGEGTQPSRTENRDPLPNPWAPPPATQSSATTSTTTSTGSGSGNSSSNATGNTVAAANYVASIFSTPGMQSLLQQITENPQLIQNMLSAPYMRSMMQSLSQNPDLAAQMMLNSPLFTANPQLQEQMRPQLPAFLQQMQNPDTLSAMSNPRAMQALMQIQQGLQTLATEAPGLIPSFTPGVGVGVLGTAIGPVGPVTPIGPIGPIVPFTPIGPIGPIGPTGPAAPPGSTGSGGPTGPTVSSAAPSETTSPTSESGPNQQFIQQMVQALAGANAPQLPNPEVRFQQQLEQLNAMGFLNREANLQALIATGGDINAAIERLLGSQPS

B1: TMEL1020 (antibody, V domains shown)
VH: QVHLVQSGAEVKKPGASVKVSCKASGYTFTNYFIHWVRQAPGQGPEWMGVINPSFGSTTYAQKLQGRVTMTRETSTSTVYMELSSLRSEDTAVYYCARESLDSASYSTIAHWGQGTLVTVSS
VL: EIVLAQSPGTLYLSPGERATLSCRASQSVRGNYLAWYQQRPGQAPRLLIYGASSRATGIPDRFGGSGSGTDFTLTITRLLPEDFAVYYCHQYGSSPRTFGQGTKVEIKR
notes: detected with anti-human IgG Fc
On to B1, for which the binding result in test [1] is on record as “binds”.

B2: TMEL1027 (antibody, V domains shown)
VH: QVQLVQSGAEVKKPGASVKVSCKASGYTFTVYYMHWVRQAPGQGLEWMGRINPNSGGTNYAQKFQGRVTMTRDTSISTAYMELSRLTSDDTAVYYCARVVVVGTDYGMDVWGQGTTVTVSS
VL: VSSELTQDPAVSVALGQTVRITCQGDSLRSYYASWYQQRPGQAPVLVIYGKNNRPSGIPDRFSGSSSGNTASLTITGAQAEDEADYYCNSRDSSGNHVFGTGTKVTVLG
notes: as for B1
As to B2, the binding result in test [2] is “binds”.

B3: TLUS1006 (antibody, V domains shown)
VH: PVHLVQSGAEVRKPGSSVKVSCMASGGSFNTYAVNWVRQAPGQGLEWMGGIIPVFGTTNYAPRFQGRVTITADESTSTVYMELTSLTSEDTAVYYCARDRDSGYERNCLDPWGQGTLVTVSS
VL: DIVMTQSPDSLAVTLGERATINCRSSQTVLYDSNNKNYLAWYQQKPGQPPKLLIYWASIRESGVPDRFSGSGSGTDFTLTINTLQAEDVAIYFCQQYFTTPRTFGQGTKVEIKR
notes: as for B1
Take B3: the binding result in test [3] and in test [4] was “binds” throughout.

B4: TMEL1028 (antibody, V domains shown)
VH: QVQLVQSGAEVKKPGASVKVSCKASGYTFTSYGISWVRQAPGQGLEWMGWISAYNGNTNYAQKLQGRVTMTTDTSTSTAYMELRSLTSDDTAVYYCARDQGLERANWFDPWGQGTLVTVSS
VL: not shown
notes: as for B1
Turning to B4, the binding result (in the test with zinc finger protein 296; in test [5]) was “binds” each time.

B5: TMEL1017 (antibody, V domains shown)
VH: EVQLVESGGGLVKPGGSLRLSCAASGFTFSNYNMNWVRQAPGKGLEWVSSISSSSSYIYYADSVKGRFTISRDNAKNSLYLQMNSLRAEDTAVYYCARDALDFDWLLSAGGFDYWGQGTLVTVSS
VL: ASALTQPASVSGSPGQSITISCTGTSSDVGGYNYVSWYQQHPGKAPKLMIYEVSNRPSGVSNRFSGSKSGNTASLTISGLQAEDEADYYCSSYTSSSTLVFGGGTKLTVLG
notes: as for B1
For B5, in test [6], the binding result was “binds”.

B6: TMEL1018 (antibody, V domains shown)
VH: PLQLQESGPGLVKPSETLSLTCTVSGGSISSSSYYWGWIRQPPGKGLEWIGSIYYSGSTYYNPSLKSRVTISVDTSKNQFSLKLSSVTAADTAVYSCARLLVGGAFDIWGQGTMVTVSS
VL: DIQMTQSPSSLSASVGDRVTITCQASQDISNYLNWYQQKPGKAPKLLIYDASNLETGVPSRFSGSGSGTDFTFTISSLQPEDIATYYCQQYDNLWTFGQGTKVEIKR
notes: as for B1
B6: the binding result (in [7]; with ubiquilin 2; with Ubiquilin 3) was “binds” throughout.

B7: TMEL1030 (antibody, V domains shown)
VH: QVQLQESGPGLVKPSGTLSLTCAVSGGSISSSNCWSWVRQPPGKGLEWLGEICHSGSTSYNPSLKSRVTISVDKSKNQFSLKLRSVTAADTAVYYCARESPLTVVFDYWGQGTLVTVSS
VL: DIQMTQSPSSLSASVGDRVTITCRASQGIRNDLGWFQQKPGKAPKRLIYAASNLPSGVSSRFSGSGSGTEFTLTISSLQPEDFATYYCLQHNNYPLTFGQGTKVEFKR
notes: as for B1
B7: the binding result with Bcl2 like 1 is “binds”.
